Experimental data published in article PMC8115288, “INI1/SMARCB1 Rpt1 domain mimics TAR RNA in binding to integrase to facilitate HIV-1 replication” (Nature Communications, 2021).

Molecular target: T1, GST-CTD (C-terminal domain of HIV-1 integrase, aa 201-288) (HIV-1 (Hx3B), UniProt P04585 1348-1435)
T1 construct: Integrase (IN) of HIV-1, C-terminal domain aa 201-288; template HIV-1 Hx3B DNA (P04585 is isolate HXB2); also called IN-CTD; GST-IN-CTD(aa 201-288); source: pGEX3xPL construct; on glutathione sepharose 4B beads (pull-down) or as GST-tagged protein (AlphaScreen)
Assay: AlphaScreen or HTRF; competition: GST-CTD (0.03 uM) with Bio-TAR RNA (0.1 uM), increasing INI1(183-304) as third component; low salt; four-parameter dose-response fit
Conditions: both partners purified

B1: His6-SUMO-INI1_(183-304) (domain or fragment, UniProt Q12824 183-304, looked up)
chain: PEVLVPIRLDMEIDGQKLRDAFTWNMNEKLMTPEMFSEILCDDLDLNPLTFVPAIASAIRQQIESYPTDSILEDQSDQRVIIKLNIHVGNISLVDQFEWDMSEKENSPEKFALKLCSELGLG
notes: INI1/SMARCB1, residues 183-304 (Rpt1, linker and part of Rpt2); Vector pET28a-h6-smt3; also called 6His-SUMO-INI1_(183-304); source: E. coli; clarified bacterial cell lysate for the pull-down
Binder B1 has an IC50 of roughly 5 nM.
